Laboratory results as given in patent US20250144141A1.

B1: M1302 (bispecific antibody, from a related filing, V domains shown)
VH: EVQLLESGGGSVQPGGSLRLSCTVSGFSLSNYAMSWVRQAPGKGLEWIGIVSSGGTTYYASWAKGRFTISKDTSKNTVYLQMNSLRAEDTASYYCAKDLYYGPNTDYSAANLWGQGTSVTVSS
VL: SYELTQPPSVSVSPGQTASITCTADTLSRSYASWYQQKPGQSPVLVIYRDTSRPSGIPERFSGSNSGNTATLTISGTQAMDEADYYCATRPSSGSNFQLFGGGTKLTVL
B2: M1041 (bispecific antibody, from a related filing, V domains shown)
VH: ESQVLESGGGSVQPGGSLRLSCTVSGFSLSNYAMSWVRQAPGKGLEYIGIVSSGGTTYYASWAKGRFTISKDTSKNTVYLQMNSLRAEDTASYYCAKDLYYGPTTYSAFNLWGQGTSVTVSS
VL: B1 VL

Key:
[1] = biological target: HLA-A*02:01/MAGE-A4 complex (human) (UniProt P04439); experiment: SPR
[2] = biological target: HLA-A*02:01/MAGE-A4 complex (human) (UniProt P04439); experiment: SPR (Biacore T200), pMHC on streptavidin chip, 1:1 Langmuir fit

Binder | Kd [1] [nM] | Kd [2] [nM]
B1 | 0.6 | 0.6
B2 | 0.25 | 0.24
